Results as given in paper PMC4709657, “Construction of a subunit-fusion nitrile hydratase and discovery of an innovative metal ion transfer pattern” (Scientific Reports, 2016).

How the values were obtained:
wild-type NHase = biological target: T1, wild-type NHase (Pseudomonas putida, UniProt P97051+P97052); test: product tolerance: 3-cyanopyridine consumption with / without nicotinamide; assay type: biochemical; conditions: 20 mM 3-cyanopyridine, 10 min
T1 construct: gene nthA; tetramer alpha2beta2; EC 4.2.1.84; tag not clearly stated
T1 sequence (P97051 1-210): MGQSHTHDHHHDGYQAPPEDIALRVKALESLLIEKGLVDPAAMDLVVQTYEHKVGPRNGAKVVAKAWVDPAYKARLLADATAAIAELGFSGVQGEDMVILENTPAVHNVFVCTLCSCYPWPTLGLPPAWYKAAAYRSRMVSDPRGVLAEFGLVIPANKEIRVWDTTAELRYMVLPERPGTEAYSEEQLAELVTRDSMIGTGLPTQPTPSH
T1 sequence (P97052 1-217): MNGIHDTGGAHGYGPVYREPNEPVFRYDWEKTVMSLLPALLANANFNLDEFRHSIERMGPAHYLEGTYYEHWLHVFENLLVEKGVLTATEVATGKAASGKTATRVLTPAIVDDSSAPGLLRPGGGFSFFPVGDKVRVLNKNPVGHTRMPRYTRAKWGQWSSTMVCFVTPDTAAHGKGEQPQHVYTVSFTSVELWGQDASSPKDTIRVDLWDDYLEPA

NHase-(BA)P14K = biological target: T2, NHase-(BA)P14K (Pseudomonas putida, UniProt P97051+P97052); test: as above; assay type: biochemical; conditions: 20 mM 3-cyanopyridine, 10 min
T2 construct: gene nthB; pET28a, E. coli
T2 sequence (P97052 1-217): T1 sequence (P97052 1-217)
T2 sequence (P97051 1-210): T1 sequence (P97051 1-210)

NHase-(BAP14K) = biological target: T3, NHase-(BAP14K) (Pseudomonas putida, UniProt P97051+P97052); test: as above; assay type: biochemical; conditions: 20 mM 3-cyanopyridine, 10 min
T3 construct: gene nthB; pET28a, E. coli; cobalt-loaded
T3 sequence (P97052 1-217): T1 sequence (P97052 1-217)
T3 sequence (P97051 1-210): T1 sequence (P97051 1-210)
T3 sequence (O69769 1-127 partner): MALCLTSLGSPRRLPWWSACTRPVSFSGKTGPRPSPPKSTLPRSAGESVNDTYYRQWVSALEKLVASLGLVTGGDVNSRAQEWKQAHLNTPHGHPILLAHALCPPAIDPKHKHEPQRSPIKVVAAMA

[1] = biological target: the molecule itself; test: SEC; purified enzymes and marker proteins on a Superdex 200 10/300 GL column, 10 mM KPB; mass from the standard curve of marker proteins, oligomer inferred from the mass
[2] = substrate: N#Cc1cccnc1; test: nicotinamide formation, A215; assay type: biochemical, Pseudomonas putida; conditions: 10 mM KPB, 25 °C, 2 min, 10-200 mM substrate, cobalt enzyme
Text: nicotinamide formation, A215 on wild-type NHase

In the case of `NC(=O)c1cccnc1` [nicotinamide], the “reduction ratio (with / without 0.5 M nicotinamide)” value (wild-type NHase) is reported as 0.80, the “reduction ratio (with / without 0.5 M nicotinamide)” value (NHase-(BA)P14K) is reported as 0.86 and the “reduction ratio (with / without 0.5 M nicotinamide)” value (NHase-(BAP14K)) is reported as 0.83.

B1: NHase-(BA)P14K, fusion nitrile hydratase encoded by the gene (BA)P14K (enzyme, Pseudomonas putida NRRL-18668)
chain: MNGIHDTGGAHGYGPVYREPNEPVFRYDWEKTVMSLLPALLANANFNLDEFRHSIERMGPAHYLEGTYYEHWLHVFENLLVEKGVLTATEVATGKAASGKTATRVLTPAIVDDSSAPGLLRPGGGFSFFPVGDKVRVLNKNPVGHTRMPRYTRAKWGQWSSTMVCFVTPDTAAHGKGEQPQHVYTVSFTSVELWGQDASSPKDTIRVDLWDDYLEPAPGMGQSHTHDHHHDGYQAPPEDIALRVKALESLLIEKGLVDPAAMDLVVQTYEHKVGPRNGAKVVAKAWVDPAYKARLLADATAAIAELGFSGVQGEDMVILENTPAVHNVFVCTLCSCYPWPTLGLPPAWYKAAAYRSRMVSDPRGVLAEFGLVIPANKEIRVWDTTAELRYMVLPERPGTEAYSEEQLAELVTRDSMIGTGLPTQPTPSH
notes: β-subunit of the cobalt nitrile hydratase of Pseudomonas putida NRRL-18668 (B gene); MALDI-TOF indicated the full length of βα; linker, dipeptide proline-glycine; α-subunit of the cobalt nitrile hydratase of Pseudomonas putida NRRL-18668 (A gene); Same polypeptide as m1 but made with P14K co-expressed from the same plasmid; cobalt-containing (0.84 per βα); P14K is not part of the purified enzyme; …
In the case of B1, the “stoichiometry N” value [1] is reported as 2.

B2: wild-type NHase (Pseudomonas putida) (protein)
chain 1: T1 sequence (P97051 1-210)
chain 2: T1 sequence (P97052 1-217)
notes: tetramer alpha2beta2; EC 4.2.1.84; tag not clearly stated
Molecule B2 has a Km [2] of 41.2 ± 7.7 mM, a kcat [2] of 335 ± 57.6 s⁻¹ and a kcat/Km [2] of 8100 M⁻¹ s⁻¹.
